Entries after “also recorded” stand apart in the source; their conditions may differ. Read-outs that look alike come from different tables or passages of the source. No end group written: not given here.
T1: FcγRIIA (Homo sapiens, UniProt P12318)
T1 sequence (P12318 34-317): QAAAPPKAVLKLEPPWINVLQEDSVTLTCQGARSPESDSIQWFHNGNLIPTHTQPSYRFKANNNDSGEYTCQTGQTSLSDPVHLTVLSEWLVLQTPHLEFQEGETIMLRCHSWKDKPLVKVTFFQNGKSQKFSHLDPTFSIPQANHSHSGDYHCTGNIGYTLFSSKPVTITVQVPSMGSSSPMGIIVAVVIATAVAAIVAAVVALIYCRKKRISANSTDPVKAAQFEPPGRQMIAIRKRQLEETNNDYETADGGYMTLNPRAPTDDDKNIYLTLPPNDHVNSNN

T2: human Fc gamma receptor IIA (FcγRIIA) (human, UniProt P12318 34-317)
T2 sequence (looked up): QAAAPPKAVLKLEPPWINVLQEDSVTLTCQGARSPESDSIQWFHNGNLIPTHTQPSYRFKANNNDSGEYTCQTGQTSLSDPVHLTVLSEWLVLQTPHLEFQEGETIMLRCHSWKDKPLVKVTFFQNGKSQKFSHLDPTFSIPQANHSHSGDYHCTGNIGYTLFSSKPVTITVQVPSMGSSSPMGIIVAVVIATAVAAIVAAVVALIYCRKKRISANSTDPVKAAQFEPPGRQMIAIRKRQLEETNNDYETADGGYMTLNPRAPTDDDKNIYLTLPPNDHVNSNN

B1: Humanized scFv (parental scFv) derived from the IV.3 monoclonal antibody (scFv)
scFv: EVQLVESGPELKKPGETVKISCKASGYTFTNYGMNWVKQAPGKGLKWMGWLNTYTGESIYPDDFKGRFAFSLETSASTAYLQINNLKSEDTATYFCARGDYGYDDPLDYWGQGTSVTVSSGGGGSGGGGSGGGGSDIVMTQAPPSVPVTPGESVSISCRSSKSLLHTNGNTYLHWFLQKPGQSPRLLIYRMSVLASGVPDRFSGSGSGTDFTLKISRVEAEDVGVYYCMQHLEYPLTFGAGTKLEIKRAHHHHHH
modifications: AF488 (fluorescent) label in the flow cytometry binding assays; site not stated
notes: Arranged VH-linker-VL; also called HRU4
B2: parental scFv: Humanized scFv derived from anti-FcγRIIA IV.3 monoclonal antibody, VH and VL joined by flexible GGGGS linker (protein)
scFv: EVQLVESGPELKKPGETVKISCKASGYTFTNYGMNWVKQAPGKGLKWMGWLNTYTGESIYPDDFKGRFAFSLETSASTAYLQINNLKSEDTATYFCARGDYGYDDPLDYWGQGTSVTVSSGGGGSGGGGSGGGGSDIVMTQAPPSVPVTPGESVSISCRSSKSLLHTNGNTYLHWFLQKPGQSPRLLIYRMSVLASGVPDRFSGSGSGTDFTLKISRVEAEDVGVYYCMQHLEYPLTFGAGTKLEIKRAHHHHHH
B3: HRU7: HRU5 linked to bivalirudin (an anticoagulant peptide) by a Ser2Gly12 linker (protein)
scFv: EVQLVESGPELKKPGETVKISCKASGYTFTNYGMNWVKQAPGKGLKWMGWLNTYTGESIYPDDFKGRFAFSLETSASTAYLQINNLKSEDTATYFCARGDYGYDDPLDYWGQGTSVTVSSGGGGWAWVWLTETAVGGGGSDIVMTQAPPSVPVTPGESVSISCRSSKSLLHTNGNTYLHWFLQKPGQSPRLLIYRMSVLASGVPDRFSGSGSGTDFTLKISRVEAEDVGVYYCMQHLEYPLTFGAGTKLEIKRAGGGGSGGGGSGGGGFPRPGGGGNGDFEEIPEEYLHHHHHH
B4: HRU5 (scFv)
scFv: EVQLVESGPELKKPGETVKISCKASGYTFTNYGMNWVKQAPGKGLKWMGWLNTYTGESIYPDDFKGRFAFSLETSASTAYLQINNLKSEDTATYFCARGDYGYDDPLDYWGQGTSVTVSSGGGGWAWVWLTETAVGGGGSDIVMTQAPPSVPVTPGESVSISCRSSKSLLHTNGNTYLHWFLQKPGQSPRLLIYRMSVLASGVPDRFSGSGSGTDFTLKISRVEAEDVGVYYCMQHLEYPLTFGAGTKLEIKRAHHHHHH
modifications: AF488 (fluorescent) label in the flow cytometry binding assays; site not stated
notes: also called HRU5 scFv; Peptide in the linker
B5: HRU5: Humanized variable heavy and variable light chains derived from the IV.3 MoAb linked with a GGGGWAWVWLTETAVGGGGS linker (protein)
scFv: EVQLVESGPELKKPGETVKISCKASGYTFTNYGMNWVKQAPGKGLKWMGWLNTYTGESIYPDDFKGRFAFSLETSASTAYLQINNLKSEDTATYFCARGDYGYDDPLDYWGQGTSVTVSSGGGGWAWVWLTETAVGGGGSDIVMTQAPPSVPVTPGESVSISCRSSKSLLHTNGNTYLHWFLQKPGQSPRLLIYRMSVLASGVPDRFSGSGSGTDFTLKISRVEAEDVGVYYCMQHLEYPLTFGAGTKLEIKRAHHHHHH

Key:
human platelets [1] = type: cell-based; settings: for Inhibition of platelet aggregation of HIT-antibody: concentration giving inhibition; for inhibition of HIT serum induced aggregation: 40 nM, human platelets, HIT serum and heparin; for EC50: HRU5 relative to the parental scFv, read-out: activity (effective concentration)
Protocol: Platelet aggregation assays were performed by mixing samples at 1200 rpm, 37° C. for up to 25 min in an aggregometer (Chrono-log Aggro/Link™). The reaction mixture (500 μl) consisted of 300 μl of healthy donor PRP, HIT patient serum or purified Total HIT IgG (up to 14 μM, adjusted according to different donor platelets), heparin (0.5 IU/ml) and various concentrations of HRU5-HRU7. The degree of aggregation was determined by the increase in light transmittance. Platelet aggregation levels over 20% were considered positive.
With antibody/IC-induced platelet aggregation, time delay (time lapse) is a more sensitive measure of platelet aggregability compared with the extent of platelet aggregation as different antibodies invariably cause the same maximum extent of platelet aggregation after variable time delays or time lapses (as illustrated in FIG. 2B). Various concentrations of parental scFv, HRU5 or HRU6 were used. Plots were fitted to non-linear regression analysis (sigmoidal dose-response curves) (FIG. 2C). […] Here, the degree of inhibition of platelet aggregation was determined at various concentrations and analysed as shown in FIG. 2D.
Inhibition of platelet aggregation of HIT-antibody by HRU5 ˜3.5 mg/ml.

FcγRIIA = molecular target: T1, FcγRIIA; assay: Binding of the linker peptide alone; settings: source not stated
[2] = molecular target: T2, human Fc gamma receptor IIA (FcγRIIA); assay: cell-based or functional assay
[3] = molecular target: T2, human Fc gamma receptor IIA (FcγRIIA); assay: platelet-based fluorescent assay (flow cytometry), one-site specific binding fit
Protocol: (§1) Platelet-rich plasma (PRP) was obtained from whole blood after centrifugation at 200×g for 10 min. Washing/Suspension buffer (PBS, 0.5% BSA, 25 mM EDTA, pH 6.8) was used for platelet preparation throughout the experiment. 4 μl of PRP was incubated with various concentrations of fluorescently labelled HRU molecules for 30 min. Cells were washed once with 500 μl of buffer (PBS, 0.5% BSA, 25 mM EDTA, pH 6.8), suspended in 200 μl of PBS and analysed by flow cytometry (Cantoll, BD Biosciences).

[4] = system: FcγRIIa+/hPF4+ mouse lungs; assay: Platelet accumulation in FcγRIIa+/hPF4+ mouse lungs (FIG. 8); type: in vivo
Excerpt: FIG. 8 is a graph of radiant efficiency showing the level of platelet accumulation in FcγRIIa+/hPF4+ mouse lungs.

[5] = system: FcγRIIA/hPF4 double transgenic mice; assay: Animal model of HIT (KKO plus heparin), lung thrombi by fluorescence; type: in vivo, mouse; settings: 3.49×10^−11 moles per gram (~1 microgram/g)
Protocol: The mice used in these experiments were described in Reilly et al., “Heparin-induced thrombocytopenia/thrombosis in a transgenic mouse model requires human platelet factor 4 and platelet activation through FcγRIIA” Blood. 2001; 98(8):2442-2447. Animals were injected intravenously (iv) with HIT-like MoAb KKO. Heparin was injected intraperitoneally at 1 U/g following IgG injection. In some experiments, HRU molecules were also injected via the iv route. For in vivo platelet labelling anti-CD42c-Dylight649 (Emfret) was injected iv at 1 μg/g. Platelet counts were measured before treatment and at 1 h, 3 h and 5 h following treatment. Lungs were harvested 4 h after treatment, fixed in formalin and scanned for fluorescence in an IVIS Lumina Spectrum CT Spectrometer (PerkinElmer).
Mouse platelets were labeled in vivo with anti CD42c-Dylight649 antibody. The animals were treated with the HIT-like monoclonal antibody KKO plus heparin in the absence (vehicle) or presence of 3.49×10^−11 moles per gram (˜1 microgram/g) of parental scFv or HRU5. Fixed lungs from these mice were scanned with an IVIS Lumina Spectrum CT. There was clear accumulation of florescence in lungs treated with KKO plus vehicle, indicative of the presence of platelet rich thrombi. […] This finding is consistent with the findings of the in vitro experiments and microfluidics studies. […]

platelets [6] = assay: Serotonin release assay (platelet activation); type: cell-based, human; settings: 0.1 IU/ml heparin; induced by KKO (FIG. 4) / HIT serum
Excerpt: FIG. 4 is a graph of the serotonin release assay. Serotonin release was induced by a HIT-like monoclonal antibody (KKO) and was inhibited by parental scFv, HRU5, HRU6 or HRU7. Heparin was used at therapeutic low concentrations (L, 0.1 U) and at inhibitory high concentration (H,100 U). Dotted lines denote 0% and 20% CPMA. Values over 20% are considered positive. CPMA, counts per minute.
SRA is the gold standard to confirm the presence of platelet-activating HIT antibodies. Platelets from a healthy donor were labelled with Hydroxytryptamine Binoxalate, 5-[2-^14C]-(Serotonin) (^14C-5HT) (1.5 μl/ml) and mixed with heparin (0.1 (low dose) or 100 IU/ml (high dose)) in the presence of HIT serum. The protein of interest was then added to the reaction and incubated at room temperature for 1 h. After centrifugation the supernatant was collected and the ^14C-serotonin released was measured in a scintillation counter. The percentage of ^14C-serotonin released was calculated by determining the proportion in the supernatant relative to the remaining ^14C-serotonin in platelets. A test result is defined as positive if more than 20% serotonin release is detected with a therapeutic heparin concentration of (0.1 IU/ml) but not with a high dose of heparin (100 IU/ml).

human platelets [7] = assay: Platelet binding, flow cytometry (platelet-based fluorescent assay); settings: for Kd: binding to human platelets, non-linear regression, one-site specific binding (FIG. 1D); for binding to human platelets: labelled scFvs, flow cytometry, in words
Protocol: FIG. 1D provides graphs of platelet-based fluorescent assay measurements with KD and R^2 values for the parental scFv, HRU5 and HRU6. Non-linear regression analysis (one-site specific binding) was used to determine KD and R^2 values. GMF, geometric mean fluorescence.
as §1

thrombin = molecular target: T3, thrombin (Homo sapiens, UniProt P00734); assay: Thrombin time assay in plasma; type: biochemical; settings: undiluted plasma, increasing concentrations, in words
T3 construct: purchased Diagnostica STAGO S.A.A
Protocol: FIG. 3B is a graph of a Thrombin Time Delay assay for HRU6 and HRU7. Increasing concentrations of HRU molecules were incubated with undiluted plasma prepared from ACD anticoagulated blood. Clotting time of control plasma (untreated plasma) is shown corresponding to 0 concentration (closed circle). […] Clotting time is shown in sec.
The STA-Thrombin kit (Diagnostica STAGO S.A.A.) was used for the determination of the thrombin time by a haemostasis analyser. Plasma was prepared from ACD anticoagulated normal blood by centrifugation for 10 min at 2500×g. 500 μl of undiluted plasma, in the absence and presence of different inhibitor concentrations (e.g., HRU6 and HRU7), was analysed. Thrombin time of the plasma was determined by the analyser.
HRU6 and HRU7 also contain anti-thrombin activity provided by the lepirudin and bivalirudin moieties respectively. The Hemoclot thrombin inhibitor assay was used to determine the anti-clotting activity. The normal clotting time range is 15-24 sec.

platelets [8] = assay: Thrombin-induced platelet aggregation; type: cell-based, human; settings: 0.3 U of thrombin
Excerpt: For thrombin induced platelet aggregation samples were mixed as described above in the presence of 0.3 U of thrombin.

Molecule | Inhibition of platelet aggregation of HIT-antibody (human platelets [1]; serum from a HIT patient) | Kd [3] | inhibition of HIT serum induced aggregation (human platelets [1]) | EC50 (human platelets [1]) | inhibition of thrombus accumulation in lungs [5] | 14C-serotonin release (platelets [6]) | Kd (human platelets [7]) | thrombin clotting time (thrombin) | binding to human platelets (human platelets [7]) | other results
WAWVWLTETAV [FcγRIIA binding peptide, reference compound] | 100 µM |  |  |  |  |  |  |  |  | IC50 (human platelets [1]): 55 µM; capacity to inhibit HIT serum-induced aggregation (human platelets [1]; peptide alone, FIG. 10): low; IC50 of peptide versus EC50 of the parental scFv (human platelets [1]; printed as '3,000 times lower'): 3,000 times; Kd (FcγRIIA): 500 nM
B1 |  | 298 nM |  |  |  |  |  |  |  | EC50 (platelet aggregation induced by HIT serum) [2]: 18 nM
B2 |  |  | completely inhibited | 55 µM | inhibition of thrombus accumulation | inhibited | 282 nM |  |  | inhibition of thrombosis (platelet accumulation in lungs, radiant efficiency) [4]: strong inhibition of thrombosis
B3 |  |  |  |  |  | inhibited |  | significant increases in thrombin clotting time; also recorded: prolong clotting time in a dose-dependent manner | stronger binding to human platelets than expected | inhibition of thrombin-induced platelet aggregation (platelets [8]): inhibit thrombin-induced platelet aggregation in a dose dependent manner
B4 |  | 282 nM |  |  |  |  |  |  |  | 
B5 | ~3.5 mg/mL |  | completely inhibited | 0.0088 µM | inhibition of thrombus accumulation; also recorded: Clot inhibition was much greater in mice treated with HRU5 than with parental scFv | inhibited | 298 nM | did not influence clotting time; also recorded: does not prolong clotting time | strong binding to platelets | activity relative to the parental scFv (EC50 and IC50) (human platelets [1]; HIT serum-induced platelet aggregation, in words): increase in activity; Inhibition of platelet aggregation of HIT-antibody (human platelets [1]; converted from mg/ml): ~0.09386 µM
